The target in test [1] is Canine CD20 (canine) (UniProt Q3C2E2). The test can be described thus: cell-based or functional assay.
For test [2] the target is unchanged. The test can be described thus: FACS on CHO cells expressing recombinant canine CD20.

Canine CD20 (canine), sequence (Q3C2E2 other isoform, or with tags, fused parts or gaps): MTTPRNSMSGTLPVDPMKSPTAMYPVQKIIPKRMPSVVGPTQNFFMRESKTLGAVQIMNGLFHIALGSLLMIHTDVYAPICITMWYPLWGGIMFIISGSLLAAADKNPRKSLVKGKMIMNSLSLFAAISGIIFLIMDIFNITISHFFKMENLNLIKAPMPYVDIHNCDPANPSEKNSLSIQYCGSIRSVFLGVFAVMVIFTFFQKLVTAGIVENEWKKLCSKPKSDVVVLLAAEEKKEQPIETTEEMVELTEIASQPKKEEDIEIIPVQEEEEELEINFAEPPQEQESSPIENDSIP

B1: anti-canine CD20 antibody CD20-4 (antibody, part only; not given: light chain, V domains shown, part only)
VH: EVQLQQSVAELVRPGASVTLSCKASGYTFTDYEMHWVKQTPVHGLEWIGEIDPETGGTAYNQKFKGKAILTADKSSSTAYMELRSLTSEDSAVYYCTEYAMDYWGQGTSVTVSS
Turning to B1, the Reduction (%) of cell proliferation of lymphoma cells with Canine CD20 (canine) [1] is 17.5%. Also, in the test with Canine CD20 (canine) [2], the Kd was 0.0774 µM.

As usually defined, the Kd is the constant that tells how readily two partners part at equilibrium.

The values are drawn from patent US20170002084A1.
